{
  "source": "patent US7166568B1",
  "about": "“Compositions and methods to inhibit formation of the C5b-9 complex of complement” (Oklahoma Medical Research Foundation, priority 1998, dated 2007)",
  "molecular_target": "T1, CD59 (Homo sapiens, UniProt P13987)",
  "T1 construct": "human erythrocyte membrane glycoprotein CD59 were purified; from tissue; host or cells: human erythrocyte membranes (CD59); synthetic peptide custom ordered from Quality Controlled Biochemicals",
  "T1 sequence (P13987 26-102)": "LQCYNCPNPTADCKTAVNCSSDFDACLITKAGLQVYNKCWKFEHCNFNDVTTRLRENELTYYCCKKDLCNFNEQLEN",
  "assay": "CD59 binding to hu C9 peptide 359–384, microtiter plate assay with biotin-CD59",
  "details": "microplate; corrected for nonspecific binding with 20-fold excess unlabeled CD59",
  "method": "Biotin-CD59—CD59 was biotinylated by incubation (1 h, room temperature) with a 20-fold molar excess of NHS-LC-biotin in 10 mM MOPS, 0.1% Nonidet P-40, pH 9.0 followed by exhaustive dialysis against charcoal, as described by Chang, et al. J. Biol. Chem. 269, 26424–26430 (1994).\nCD59 binding to hu C9 peptide 359–384—The specific binding of CD59 to hu C9-derived peptide 359–384 was measured by microtiter plate assay with biotin-CD59, according to modification of published methods of Chang, et al. (1994) and Husler, et al. (1995). Briefly, the BSA-peptide conjugate was adsorbed to 96 well polyvinyl microplates by overnight coating at 5 μg/ml in 0.1 M sodium bicarbonate, pH 8.5. After blocking with 1% (w/v) BSA, wells were washed and incubated (4 hrs., 37° C.) with between 0.5 and 1 μg/ml biotin-CD59. After washing, the bound biotin-CD59 was detected with Vectastain (Vector Labs, Burlingame, Calif.), developed by addition of p-nitrophenyl phosphate (2 mg/ml) and optical density recorded at 405 nm (VMaxMicroplate Reader, Molecular Devices, Inc.). In all experiments, correction was made for background adsorption of biotin-CD59 to BSA-coated wells (no peptide) and for nonspecific binding of biotin-CD59 to peptide, determined in the presence of a 20-fold excess of unlabeled CD59. […]",
  "note": "Non-standard residues stand in square brackets, D forms with d. No end group written: not given here. allyl‑C = allyl-modified terminal Cys; allyl‑K = allyl-modified terminal Lys",
  "data": [
    {"substance": "[allyl-K]-CLGYHLDVSLAFSEISVGAEFNKDD-[allyl-C] ([allyl‑K]CLGYHLDVSLAFSEISVGAEFNKDD[allyl‑C]; not fully specified; printed as [allyl-K]-CLGYHLDVSLAFSEISVGAEFNKDD-[allyl-C]) [C9 peptide 359–384]", "values": [
      {"measurement": "specific binding of biotin-CD59 to the BSA-coupled peptide", "value": "specifically bound"}
    ]}
  ]
}
